Molecular target: GST-tagged p65_(532–550) (human)
Assay: pull-down

binding efficiency (bound fragment intensity/input fragment intensity)	Substance
17%	His-DNA-PKcs_(541-988) (from UniProt P78527 541-988) (domain or fragment)
99%	His-DNA-PKcs_(2408-2819) (from UniProt P78527 2408-2819) (domain or fragment)

Reference: paper PMC10477060
